Test results reported in patent US20210403582A1 (JACOBIO PHARMACEUTICALS, published 2021).

What was measured:
[1] = molecular target: T1, human LIF protein (human, UniProt P15018 23-202); assay: ELISA, antigen coated 0.5 ug/ml, 293S supernatant non-heated, antibody 1 ug/mL
T1 construct: Bought recombinant protein (Sino Biological / Yiqiao Shenzhou 14890-HNAH) in most assays; also called recombinant human LIF protein; rhLIF
Procedure: (§1) Each well was coated with 100 μL of 0.5 μg/ml antigen and incubate overnight at 4° C., and the plates were washed three times with 300 μL of Wash Buffer. The plates were closed with 200 μL of Closure Buffer (2% bovine serum albumin) for 60 min at room temperature. The plates were washed three times with 300 μL of Wash Buffer. 100 μL of diluted anti-LIF antibody at different concentrations was added to each well and incubate for 1 hour at room temperature. The plates were washed 4 times with 300 μL of Wash Buffer. 100 μL of HRP-labeled goat anti-human Fc secondary antibody at a dilution of 1:5000 was added and incubate for 1 hour at room temperature. The plates were washed 6 times with 300 μL of Wash Buffer. 100 μL of H₂O₂-Amplx Color Development Solution was added for developing the color for 10 min at room temperature under dark conditions. The OD 450 value was read by an enzyme marker. Heat treatment: the expression medium was heated on the PCR machine at 70° C. for 5 min and then rapidly cooled to room temperature. Perform subsequent ELISA assays as above.

[2] = molecular target: T1, human LIF protein; assay: ELISA, antigen coated 0.5 ug/ml, 293S supernatant non-heated, antibody 0.2 ug/mL
Procedure: as §1

[3] = molecular target: T1, human LIF protein; assay: ELISA, antigen coated 0.5 ug/ml, 293S supernatant non-heated, antibody 0.04 ug/mL
Procedure: as §1

[4] = molecular target: T1, human LIF protein; assay: ELISA, antigen coated 0.5 ug/ml, 293S supernatant heated 70 C 5 min, antibody 1 ug/mL
Procedure: as §1

[5] = molecular target: T1, human LIF protein; assay: ELISA, antigen coated 0.5 ug/ml, 293S supernatant heated 70 C 5 min, antibody 0.2 ug/mL
Procedure: as §1

[6] = molecular target: T1, human LIF protein; assay: ELISA, antigen coated 0.5 ug/ml, 293S supernatant heated 70 C 5 min, antibody 0.04 ug/mL
Procedure: as §1

T1 sequence (P15018 23-202 limits assumed): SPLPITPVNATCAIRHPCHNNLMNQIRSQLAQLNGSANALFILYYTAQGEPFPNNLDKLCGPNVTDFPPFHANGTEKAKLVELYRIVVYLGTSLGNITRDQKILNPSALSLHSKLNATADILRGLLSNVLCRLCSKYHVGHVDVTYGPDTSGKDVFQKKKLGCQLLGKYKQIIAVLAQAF

ELISA signal [1]	ELISA signal [2]	ELISA signal [3]	ELISA signal [4]	ELISA signal [5]	ELISA signal [6]	Binder
11300	11000	6760	9540	8900	5390	H3L3 (antibody, human IgG1, kappa, N297A, V domains shown, Humanized, human IgG1 / kappa) VH: EVMLVESGGGLVQPGGSLRLSCAASGFIFSSYAMSWVRQAPETRLEWVATISSGGSNTYSPDTVKGRFTISRDNSKNTLYLQMNSLRAEDTAMYYCARYYGYYFDFWGQGTLLTVSS VL: DIHMTQSPSSLSASVGDRVTITCRASENIYSYLAWYQQKPGKSPQLLVYNAKTLAEGVPSRFSGSGSGTQFTLTISSLQPEDFATYYCQHHYVTPLTFGQGTKLEIKR
12000	11300	6270	9730	9150	4870	H2L3 (antibody, human IgG1, kappa, V domains shown, Humanized, human IgG1 / kappa) VH: EVMLVESGGGLVQPGGSLRLSCAASGFIFSSYAMSWVRQAPGTGLEWVATISSGGSNTYSPDTVKGRFTISRDNSKNTLYLQMNSLRAEDTAMYYCARYYGYYFDFWGQGTLLTVSS VL: DIHMTQSPSSLSASVGDRVTITCRASENIYSYLAWYQQKPGKSPQLLVYNAKTLAEGVPSRFSGSGSGTQFTLTISSLQPEDFATYYCQHHYVTPLTFGQGTKLEIKR
11400	10000	6220	9130	7900	5190	H3L1 (antibody, human IgG1, kappa, N297A, Humanized, human IgG1 / kappa) heavy: not shown light: DIQMTQSPSSLSASVGDRVTITCRASENIYSYLAWYQQKPGKSPKLLVYNAKTLAEGVPSRFSGSGSGTDFTLTISSLQPEDFATYYCQHHYVTPLTFGQGTKLEIKRTVAAPSVFIFPPSDEQLKSGTASVVCLLNNFYPREAKVQWKVDNALQSGNSQESVTEQDSKDSTYSLSSTLTLSKADYEKHKVYACEVTHQGLSSPVTKSFNRGEC

Second part, the binder before the results:

Binder	ELISA signal [1]	ELISA signal [2]	ELISA signal [3]	ELISA signal [4]	ELISA signal [5]	ELISA signal [6]
H2L2 (antibody, human IgG1, kappa, Humanized, human IgG1 / kappa) heavy: not shown light: DIHMTQSPSSLSASVGDRVTITCRASENIYSYLAWYQQKPGKSPKLLVYNAKTLAEGVPSRFSGSGSGTDFTLTISSLQPEDFATYYCQHHYVTPLTFGQGTKLEIKRTVAAPSVFIFPPSDEQLKSGTASVVCLLNNFYPREAKVQWKVDNALQSGNSQESVTEQDSKDSTYSLSSTLTLSKADYEKHKVYACEVTHQGLSSPVTKSFNRGEC	11700	10300	6520	9780	8720	5260
H2L1 (antibody, human IgG1, kappa, Humanized, human IgG1 / kappa) heavy: not shown light: DIQMTQSPSSLSASVGDRVTITCRASENIYSYLAWYQQKPGKSPKLLVYNAKTLAEGVPSRFSGSGSGTDFTLTISSLQPEDFATYYCQHHYVTPLTFGQGTKLEIKRTVAAPSVFIFPPSDEQLKSGTASVVCLLNNFYPREAKVQWKVDNALQSGNSQESVTEQDSKDSTYSLSSTLTLSKADYEKHKVYACEVTHQGLSSPVTKSFNRGEC	12000	10700	6370	9650	8560	5440
H1L2 (antibody, human IgG1, kappa, N297A, Humanized, human IgG1 / kappa) heavy: not shown light: DIHMTQSPSSLSASVGDRVTITCRASENIYSYLAWYQQKPGKSPKLLVYNAKTLAEGVPSRFSGSGSGTDFTLTISSLQPEDFATYYCQHHYVTPLTFGQGTKLEIKRTVAAPSVFIFPPSDEQLKSGTASVVCLLNNFYPREAKVQWKVDNALQSGNSQESVTEQDSKDSTYSLSSTLTLSKADYEKHKVYACEVTHQGLSSPVTKSFNRGEC	12100	11200	6680	9830	8920	5490
H1L3 (antibody, human IgG1, kappa, N297A, V domains shown, Humanized, human IgG1 / kappa) VH: EVMLLESGGGLVQPGGSLRLSCAASGFIFSSYAMSWVRQAPGTGLEWVATISSGGSNTYSPDTVKGRFTISRDNSKNTLYLQMNSLRAEDTAVYYCARYYGYYFDFWGQGTLLTVSS VL: DIHMTQSPSSLSASVGDRVTITCRASENIYSYLAWYQQKPGKSPQLLVYNAKTLAEGVPSRFSGSGSGTQFTLTISSLQPEDFATYYCQHHYVTPLTFGQGTKLEIKR	11800	10800	6440	9630	8750	4980
